Measured values reported in US20240317847A1 (Bayer, published 2024).

Legend:
[1] = molecular target: T1, human IL-11 (human, UniProt P20809 22-199); assay: Tri-complex ELISA, hIL-11 + mIL-11Ra-Fc + hgp130-Fc, inhibition of complex formation
T1 construct: Invigate recombinant protein; biotinylated when immobilized in the Di-complex ELISA; also called hIL11; hIL-11
T1 sequence: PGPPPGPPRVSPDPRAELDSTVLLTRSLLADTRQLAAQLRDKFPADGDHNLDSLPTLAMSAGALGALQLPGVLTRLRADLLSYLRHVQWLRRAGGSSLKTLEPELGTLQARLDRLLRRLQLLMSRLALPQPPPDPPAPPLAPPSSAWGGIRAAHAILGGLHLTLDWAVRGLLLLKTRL

[2] = molecular target: T2, human IL2Ra (human, UniProt P01589 22-240, limits assumed); assay: ELISA on coated IL2Ra, signal ratio to isotype control
T2 construct: coated on the ELISA plate; also called IL-2 receptor alpha
T2 sequence (looked up): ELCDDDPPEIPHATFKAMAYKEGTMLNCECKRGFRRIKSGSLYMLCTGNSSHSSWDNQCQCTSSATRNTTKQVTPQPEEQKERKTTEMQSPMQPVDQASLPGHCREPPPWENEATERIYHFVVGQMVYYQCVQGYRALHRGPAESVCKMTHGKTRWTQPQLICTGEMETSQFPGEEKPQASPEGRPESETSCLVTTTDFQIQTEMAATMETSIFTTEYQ
Procedure: IL2RA (Peprotech, Germany, #200-02RC) was coated at 1 or 0 μg/ml (buffer only control) in 30 μl coating buffer (Candor, #113500) per well on a 384 well microtiter plate (Maxisorb, Nunc, #460518) over night at 4-8° C. After two washes with 50 μl/well washing buffer (PBS+0.05% Tween, pH 7.4), the plates were incubated for two hours at room temperature with 50 μl/well SmartBlock (Candor, #113500). After blocking, the plates were washed three times with washing buffer. Then, a dilution series of the respective antibody (1E-7 [M] down to 2E-13 [M]) in PBS+0.05% Tween, 10% SmartBlock were added in 30 μl to the microtiter plate and incubated for 90 min at room temperature. After three additional washes, 30 μl anti mouse IgG HRP-conjugated antibody (Biotechne, HAF007), diluted 1:1000 in PBS+0.05% Tween (pH 7.4), were added per well and incubated for one hour. […] Relative fluorescence was measured with a microtiter plate reader at 535/590 nm.
Bispecific antibodies were subjected to the experimental assay procedure described in Example 20. Ratios of the signals generated at an antibody concentration of 1E-07 [M] by the respective bispecific antibody versus those of an isotype control antibody were calculated and are shown in Table E29. […]

- Efficacy (%) [1]: 104%
- IC50 [1]: 1.6 nM
- binding result [2]: no binding (tested: 1E-07 M antibody)
B1: TPP-29697 (bispecific antibody, IgG1)
chain 1: QVQLVESGGGVVQPGRSLRLSCAASGFTFSHYDMHWVRQAPGKGLEWVAVISYHGSVKFYADSVKGRFTISRDNSKNTLYLQMNSLRAEDTAVYYCARTPGFHFDYWGQGTLVTVSSGGGGSGGGGSGGGGSQSVLTQPPSASGTPGQRVTISCSGSSSNIGSNYVSWYQQLPGTAPKLLIYYDDLRPSGVPDRFSGSKSGTSASLAISGLRSEDEADYYCSAWDDSLSGVVFGGGTKLTVLGGGGSGGGGSGGGGSGVECPPCPAPPVAGPSVFLFPPKPKDTLMISRTPEVTCVVVGVSHEDPEVKFNWYVDGVEVHNAKTKPREEQYNSTYRVVSVLTVLHQDWLNGKEYKCKVSNKQLPSPIEKTISKAKGQPREPQVYTLPPCRDELTKNQVSLWCLVKGFYPSDIAVEWESNGQPENNYKTTPPVLDSDGSFFLYSKLTVDKSRWQQGNVFSCSVMHEALHNHYTQKSLSLSPGK
chain 2: EVQLLESGGGLVQPGGSLRLSCAASGFTFSSYGMHWVRQAPGKGLEWVAVISYDGSYKYYADSVKGRFTISRDNSKNTLYLQMNSLRAEDTAVYYCAAGVPDYWGQGTLVTVSSGGGGSGGGGSGGGGSQSVLTQPPSASGTPGQRVTISCSGSSSNIGSDYDVHWYQQLPGTAPKLLIYSNEERPSGVPDRFSGSKSGTSASLAISGLRSEDEADYYCSAWDSSLSGPVFGGGTKLTVLGGGGSGGGGSGGGGSGVECPPCPAPPVAGPSVFLFPPKPKDTLMISRTPEVTCVVVGVSHEDPEVKFNWYVDGVEVHNAKTKPREEQYNSTYRVVSVLTVLHQDWLNGKEYKCKVSNKQLPSPIEKTISKAKGQPREPQVCTLPPSRDELTKNQVSLSCAVKGFYPSDIAVEWESNGQPENNYKTTPPVLDSDGSFFLVSKLTVDKSRWQQGNVFSCSVMHEALHNHYTQKSLSLSPGK
notes: scFv-kih-hIgG1 with Fc-silencing mutations; bispecific comprising CDRs of TPP-29528 and TPP-29519
